The labels stand for the following.
T1: human GIP receptor (human, UniProt P48546 22-466)
T1 sequence (looked up): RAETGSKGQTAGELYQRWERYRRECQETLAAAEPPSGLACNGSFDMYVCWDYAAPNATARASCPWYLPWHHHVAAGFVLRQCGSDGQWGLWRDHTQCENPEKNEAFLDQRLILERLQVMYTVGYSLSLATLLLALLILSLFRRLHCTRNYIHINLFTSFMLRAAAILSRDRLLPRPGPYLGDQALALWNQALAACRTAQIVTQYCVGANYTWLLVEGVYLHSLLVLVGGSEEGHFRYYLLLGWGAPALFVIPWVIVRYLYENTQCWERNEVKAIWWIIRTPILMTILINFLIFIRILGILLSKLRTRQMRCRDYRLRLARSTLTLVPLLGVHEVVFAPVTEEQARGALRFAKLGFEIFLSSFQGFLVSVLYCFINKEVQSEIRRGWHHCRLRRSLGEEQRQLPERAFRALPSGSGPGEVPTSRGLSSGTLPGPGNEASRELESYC

B1: triple agonist peptide of SEQ ID NO: 9 (peptide)
peptide: Y[Aib]EGTFTSDYSEYMEKEAVREFICWLVKGGPSSGAPPPS-NH2
modifications: bridge (positions not given here); not fully specified; also: ring formation between underlined and bold residues, places not given here

Bridges are numbered along the chain shown (N, C = ends). Where no end group is shown, it is not given here. [ ]: non-standard residue; d: D form. Aib = CC(C)(N)C(=O)O

Sequence of human glucagon receptor (P47871 26-477): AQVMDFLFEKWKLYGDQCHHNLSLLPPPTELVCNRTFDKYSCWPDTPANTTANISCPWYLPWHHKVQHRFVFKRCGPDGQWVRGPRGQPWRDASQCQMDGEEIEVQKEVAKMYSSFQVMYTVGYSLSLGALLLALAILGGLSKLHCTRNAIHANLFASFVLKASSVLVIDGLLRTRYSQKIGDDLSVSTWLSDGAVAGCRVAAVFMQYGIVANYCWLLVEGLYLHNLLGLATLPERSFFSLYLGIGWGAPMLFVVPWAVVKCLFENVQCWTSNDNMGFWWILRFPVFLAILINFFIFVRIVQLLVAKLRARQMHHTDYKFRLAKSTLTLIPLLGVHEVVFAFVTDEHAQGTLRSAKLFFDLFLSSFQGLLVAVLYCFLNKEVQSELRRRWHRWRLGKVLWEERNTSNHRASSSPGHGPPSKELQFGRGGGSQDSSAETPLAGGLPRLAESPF

One experiment deals with human GLP-1 receptor (human, UniProt P43220 24-463). Kind of experiment: cell-based or functional assay.
In the case of Y[Aib]QGTFTSDYSKYLDEQRAKEFIAWLLDHHPSSGQPPPSC-NH2 (bridge 16-20) [triple agonist peptide of SEQ ID NO: 3], the “In vitro activity relative to native peptide (%), vs. GLP-1 (cAMP accumulation EC50, LANCE cAMP kit, CHO cells)” value turned out to be 17.4%.

Turning to Y[Aib]QGTFTSDYSKYLDEQAAKEFVQWLLDHHPSSGQPPPSC-NH2 (bridge 16-20) [triple agonist peptide of SEQ ID NO: 2], the “In vitro activity relative to native peptide (%), vs. GLP-1 (cAMP accumulation EC50, LANCE cAMP kit, CHO cells)” value is 91.4%.

Take Y[Aib]QGTFTSDYSIYLDEKAAKEFVQWLLDQHPSSGQPPPSC-NH2 (bridge 16-20) [triple agonist peptide of SEQ ID NO: 11]: the “In vitro activity relative to native peptide (%), vs. GLP-1 (cAMP accumulation EC50, LANCE cAMP kit, CHO cells)” value worked out at 77.6%.

As to Y[Aib]EGTFTSDYSIQLDKQAA[Aib]AFVQWLIAGGPSSGAPPPSK-NH2 [triple agonist peptide of SEQ ID NO: 12], the “In vitro activity relative to native peptide (%), vs. GLP-1 (cAMP accumulation EC50, LANCE cAMP kit, CHO cells)” value amounted to 87.2%.

On to Y[Aib]QGTFTSDYSKYLDEKRAKEFVQWLLDQHPSSGQPPPSC-NH2 (bridge 16-20) [triple agonist peptide of SEQ ID NO: 5], for which the “In vitro activity relative to native peptide (%), vs. GLP-1 (cAMP accumulation EC50, LANCE cAMP kit, CHO cells)” value worked out at 49.1%.

For Y[Aib]QGTFTSDCSKYLDEKAAKEFVQWLLDHHPSSGQPPPS-NH2 (bridge 16-20) [triple agonist peptide of SEQ ID NO: 8], the “In vitro activity relative to native peptide (%), vs. GLP-1 (cAMP accumulation EC50, LANCE cAMP kit, CHO cells)” value stood at 42.6%.

Turning to Y[Aib]QGTFTSDYSKYLDEQRAKEFVQWLLDHHPSSGQPPPSC-NH2 (bridge 16-20) [triple agonist peptide of SEQ ID NO: 1], the “In vitro activity relative to native peptide (%), vs. GLP-1 (cAMP accumulation EC50, LANCE cAMP kit, CHO cells)” value is 16.6%.

Regarding B1, the “In vitro activity relative to native peptide (%), vs. GLP-1 (cAMP accumulation EC50, LANCE cAMP kit, CHO cells)” value turned out to be 37%.

As to Y[Aib]QGTFTSDYSKALDEKAAKDFVQWLLDQHPSSGQPPPSC-NH2 (bridge 16-20) [triple agonist peptide of SEQ ID NO: 6], the “In vitro activity relative to native peptide (%), vs. GLP-1 (cAMP accumulation EC50, LANCE cAMP kit, CHO cells)” value was 89.5%.

As for Y[Aib]QGTFTSDYSKALDEKAAKDFVQWLKDQHPSSGQPPPSC-NH2 (bridge 16-20) [triple agonist peptide of SEQ ID NO: 7], the “In vitro activity relative to native peptide (%), vs. GLP-1 (cAMP accumulation EC50, LANCE cAMP kit, CHO cells)” value is 97.8%.

Take Y[Aib]QGTFTSDYSKYLDERASKDFVQWLLDHHPSSGQPPPSC-NH2 (bridge 16-20) [triple agonist peptide of SEQ ID NO: 10]: the “In vitro activity relative to native peptide (%), vs. GLP-1 (cAMP accumulation EC50, LANCE cAMP kit, CHO cells)” value came to 65.3%.

In the case of Y[Aib]QGTFTSDYSIYLDEQRAKEFIAWLLAHHPSSGQPPPSC-NH2 (bridge 16-20) [triple agonist peptide of SEQ ID NO: 4], the “In vitro activity relative to native peptide (%), vs. GLP-1 (cAMP accumulation EC50, LANCE cAMP kit, CHO cells)” value was found to be 11.2%.

A further experiment concerns the target human glucagon receptor (human, UniProt P47871 26-477). Kind of experiment: cell-based or functional assay.
Take Y[Aib]QGTFTSDYSKYLDEQRAKEFIAWLLDHHPSSGQPPPSC-NH2 (bridge 16-20) [triple agonist peptide of SEQ ID NO: 3]: the “In vitro activity relative to native peptide (%), vs. Glucagon (cAMP accumulation EC50, LANCE cAMP kit, CHO cells)” value is 577%.

For the molecule Y[Aib]QGTFTSDYSKYLDEQAAKEFVQWLLDHHPSSGQPPPSC-NH2 (bridge 16-20) [triple agonist peptide of SEQ ID NO: 2], the “In vitro activity relative to native peptide (%), vs. Glucagon (cAMP accumulation EC50, LANCE cAMP kit, CHO cells)” value stood at 146%.

Regarding Y[Aib]QGTFTSDYSIYLDEKAAKEFVQWLLDQHPSSGQPPPSC-NH2 (bridge 16-20) [triple agonist peptide of SEQ ID NO: 11], the “In vitro activity relative to native peptide (%), vs. Glucagon (cAMP accumulation EC50, LANCE cAMP kit, CHO cells)” value came out at 10.2%.

For Y[Aib]EGTFTSDYSIQLDKQAA[Aib]AFVQWLIAGGPSSGAPPPSK-NH2 [triple agonist peptide of SEQ ID NO: 12], the “In vitro activity relative to native peptide (%), vs. Glucagon (cAMP accumulation EC50, LANCE cAMP kit, CHO cells)” value amounted to 6.6%.

As for Y[Aib]QGTFTSDYSKYLDEKRAKEFVQWLLDQHPSSGQPPPSC-NH2 (bridge 16-20) [triple agonist peptide of SEQ ID NO: 5], the “In vitro activity relative to native peptide (%), vs. Glucagon (cAMP accumulation EC50, LANCE cAMP kit, CHO cells)” value was 826%.

As for Y[Aib]QGTFTSDCSKYLDEKAAKEFVQWLLDHHPSSGQPPPS-NH2 (bridge 16-20) [triple agonist peptide of SEQ ID NO: 8], the “In vitro activity relative to native peptide (%), vs. Glucagon (cAMP accumulation EC50, LANCE cAMP kit, CHO cells)” value turned out to be 5.52%.

As to Y[Aib]QGTFTSDYSKYLDEQRAKEFVQWLLDHHPSSGQPPPSC-NH2 (bridge 16-20) [triple agonist peptide of SEQ ID NO: 1], the “In vitro activity relative to native peptide (%), vs. Glucagon (cAMP accumulation EC50, LANCE cAMP kit, CHO cells)” value came out at 443%.

As to B1, the “In vitro activity relative to native peptide (%), vs. Glucagon (cAMP accumulation EC50, LANCE cAMP kit, CHO cells)” value was 26.6%.

As to Y[Aib]QGTFTSDYSKALDEKAAKDFVQWLLDQHPSSGQPPPSC-NH2 (bridge 16-20) [triple agonist peptide of SEQ ID NO: 6], the “In vitro activity relative to native peptide (%), vs. Glucagon (cAMP accumulation EC50, LANCE cAMP kit, CHO cells)” value amounted to 78.1%.

Consider Y[Aib]QGTFTSDYSKALDEKAAKDFVQWLKDQHPSSGQPPPSC-NH2 (bridge 16-20) [triple agonist peptide of SEQ ID NO: 7], for which the “In vitro activity relative to native peptide (%), vs. Glucagon (cAMP accumulation EC50, LANCE cAMP kit, CHO cells)” value stood at 3.62%.

For Y[Aib]QGTFTSDYSKYLDERASKDFVQWLLDHHPSSGQPPPSC-NH2 (bridge 16-20) [triple agonist peptide of SEQ ID NO: 10], the “In vitro activity relative to native peptide (%), vs. Glucagon (cAMP accumulation EC50, LANCE cAMP kit, CHO cells)” value came out at 19%.

Regarding Y[Aib]QGTFTSDYSIYLDEQRAKEFIAWLLAHHPSSGQPPPSC-NH2 (bridge 16-20) [triple agonist peptide of SEQ ID NO: 4], the “In vitro activity relative to native peptide (%), vs. Glucagon (cAMP accumulation EC50, LANCE cAMP kit, CHO cells)” value was 59.9%.

The next experiment has as its target T1, human GIP receptor. The experiment can be described thus: cell-based or functional assay.
As to Y[Aib]QGTFTSDYSKYLDEQRAKEFIAWLLDHHPSSGQPPPSC-NH2 (bridge 16-20) [triple agonist peptide of SEQ ID NO: 3], the “In vitro activity relative to native peptide (%), vs. GIP (cAMP accumulation EC50, LANCE cAMP kit, CHO cells)” value is 48.4%.

Consider Y[Aib]QGTFTSDYSKYLDEQAAKEFVQWLLDHHPSSGQPPPSC-NH2 (bridge 16-20) [triple agonist peptide of SEQ ID NO: 2], for which the “In vitro activity relative to native peptide (%), vs. GIP (cAMP accumulation EC50, LANCE cAMP kit, CHO cells)” value is 150%.

Consider Y[Aib]QGTFTSDYSIYLDEKAAKEFVQWLLDQHPSSGQPPPSC-NH2 (bridge 16-20) [triple agonist peptide of SEQ ID NO: 11], for which the “In vitro activity relative to native peptide (%), vs. GIP (cAMP accumulation EC50, LANCE cAMP kit, CHO cells)” value is 33.7%.

For Y[Aib]EGTFTSDYSIQLDKQAA[Aib]AFVQWLIAGGPSSGAPPPSK-NH2 [triple agonist peptide of SEQ ID NO: 12], the “In vitro activity relative to native peptide (%), vs. GIP (cAMP accumulation EC50, LANCE cAMP kit, CHO cells)” value amounted to 52.8%.

For the molecule Y[Aib]QGTFTSDYSKYLDEKRAKEFVQWLLDQHPSSGQPPPSC-NH2 (bridge 16-20) [triple agonist peptide of SEQ ID NO: 5], the “In vitro activity relative to native peptide (%), vs. GIP (cAMP accumulation EC50, LANCE cAMP kit, CHO cells)” value was 35.5%.

Consider Y[Aib]QGTFTSDCSKYLDEKAAKEFVQWLLDHHPSSGQPPPS-NH2 (bridge 16-20) [triple agonist peptide of SEQ ID NO: 8], for which the “In vitro activity relative to native peptide (%), vs. GIP (cAMP accumulation EC50, LANCE cAMP kit, CHO cells)” value is 6.19%.

Take Y[Aib]QGTFTSDYSKYLDEQRAKEFVQWLLDHHPSSGQPPPSC-NH2 (bridge 16-20) [triple agonist peptide of SEQ ID NO: 1]: the “In vitro activity relative to native peptide (%), vs. GIP (cAMP accumulation EC50, LANCE cAMP kit, CHO cells)” value worked out at 51.5%.

As for B1, the “In vitro activity relative to native peptide (%), vs. GIP (cAMP accumulation EC50, LANCE cAMP kit, CHO cells)” value amounted to 11.7%.

Turning to Y[Aib]QGTFTSDYSKALDEKAAKDFVQWLLDQHPSSGQPPPSC-NH2 (bridge 16-20) [triple agonist peptide of SEQ ID NO: 6], the “In vitro activity relative to native peptide (%), vs. GIP (cAMP accumulation EC50, LANCE cAMP kit, CHO cells)” value turned out to be 513%.

With Y[Aib]QGTFTSDYSKALDEKAAKDFVQWLKDQHPSSGQPPPSC-NH2 (bridge 16-20) [triple agonist peptide of SEQ ID NO: 7], the “In vitro activity relative to native peptide (%), vs. GIP (cAMP accumulation EC50, LANCE cAMP kit, CHO cells)” value is 33.9%.

Regarding Y[Aib]QGTFTSDYSKYLDERASKDFVQWLLDHHPSSGQPPPSC-NH2 (bridge 16-20) [triple agonist peptide of SEQ ID NO: 10], the “In vitro activity relative to native peptide (%), vs. GIP (cAMP accumulation EC50, LANCE cAMP kit, CHO cells)” value is 23.4%.

As for Y[Aib]QGTFTSDYSIYLDEQRAKEFIAWLLAHHPSSGQPPPSC-NH2 (bridge 16-20) [triple agonist peptide of SEQ ID NO: 4], the “In vitro activity relative to native peptide (%), vs. GIP (cAMP accumulation EC50, LANCE cAMP kit, CHO cells)” value stood at 124%.
